From patent US7135457

T1: human D2H transporter receptor domain, amino acid residues 387-685, His-tag fusion protein (human), Q07837
T1 chain: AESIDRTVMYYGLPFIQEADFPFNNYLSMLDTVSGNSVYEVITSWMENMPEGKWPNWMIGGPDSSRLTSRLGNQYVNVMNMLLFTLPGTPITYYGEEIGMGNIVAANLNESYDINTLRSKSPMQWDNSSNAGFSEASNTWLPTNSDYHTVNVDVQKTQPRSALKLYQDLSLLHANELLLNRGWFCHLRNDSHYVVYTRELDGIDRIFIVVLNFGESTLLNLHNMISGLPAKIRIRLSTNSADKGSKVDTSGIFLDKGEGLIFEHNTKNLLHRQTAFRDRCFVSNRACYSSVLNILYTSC


Key:
[1] = target: T1, human D2H transporter receptor domain, …; experiment: phage ELISA, coated D2H domain
[2] = target: T1, human D2H transporter receptor domain, …; experiment: phage ELISA, OD on D2H over OD on BSA
[3] = target: T2, human sucrase-isomaltase complex (hSI) receptor domain, amino acid residues 272-667, His-tag fusion protein (human), P14410; experiment: phage ELISA, coated hSI domain
T2 sequence (P14410 272-667, one chain of several): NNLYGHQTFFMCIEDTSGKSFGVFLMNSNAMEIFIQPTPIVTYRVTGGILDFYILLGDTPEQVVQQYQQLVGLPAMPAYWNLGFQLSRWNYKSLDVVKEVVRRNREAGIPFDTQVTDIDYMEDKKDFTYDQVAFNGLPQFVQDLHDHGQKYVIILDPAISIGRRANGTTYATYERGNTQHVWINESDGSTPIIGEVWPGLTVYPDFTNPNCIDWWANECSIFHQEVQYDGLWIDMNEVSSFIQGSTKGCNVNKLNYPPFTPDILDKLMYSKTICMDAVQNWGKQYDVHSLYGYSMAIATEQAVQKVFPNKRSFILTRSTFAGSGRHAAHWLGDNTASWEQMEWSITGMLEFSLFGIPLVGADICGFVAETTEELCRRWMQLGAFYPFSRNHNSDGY

[4] = target: T2, human sucrase-isomaltase complex (hSI) …; experiment: phage ELISA, OD on hSI over OD on BSA

Binder	OD [1] [OD 650 nm]	D2H/BSA [2]	OD [3] [OD 650 nm]	hSI/BSA [4]
SWSSWNWSSKTTRLGDRATREGCGPSQSDGCPYNGRLTTVKPRT (modifications not checked) [phage DCX36]	0.293	5	–	–
SPRSFWPVVSRHESFGISNYLGCGYRTCISGTMTKSSPIYPRHS (modifications not checked) [phage S21]	–	–	0.845	9
